Measurements reported in article PMC4631838, “Molecular architecture of the yeast Mediator complex” (eLife, 2015).
One block for each binder: values may come before it.

Tests used:
Assay in all cases: cross-linking; BS3 (unlabeled, or 50:50 with 2H12-labeled BS3) on the purified native holoenzyme; 150 mM NaPO4, 150 mM KOAc, pH 7.5, 5% glycerol, 2 mM DTT; procedure A 2.7 mM reagent 120 min on ice; trypsin digest, LC-MS/MS, Protein Prospector
Settings in all cases: both partners purified
[1] = target: T1, Med14 (Rgr1), Mediator subunit (S. cerevisiae, UniProt P19263 1-1082)
T1 construct: Med14 (Rgr1), S. cerevisiae, endogenous, residues 1-1082 spoken of; source: endogenous, S. cerevisiae CB010 double-tagged strain; within the purified native holoenzyme
T1 sequence (looked up): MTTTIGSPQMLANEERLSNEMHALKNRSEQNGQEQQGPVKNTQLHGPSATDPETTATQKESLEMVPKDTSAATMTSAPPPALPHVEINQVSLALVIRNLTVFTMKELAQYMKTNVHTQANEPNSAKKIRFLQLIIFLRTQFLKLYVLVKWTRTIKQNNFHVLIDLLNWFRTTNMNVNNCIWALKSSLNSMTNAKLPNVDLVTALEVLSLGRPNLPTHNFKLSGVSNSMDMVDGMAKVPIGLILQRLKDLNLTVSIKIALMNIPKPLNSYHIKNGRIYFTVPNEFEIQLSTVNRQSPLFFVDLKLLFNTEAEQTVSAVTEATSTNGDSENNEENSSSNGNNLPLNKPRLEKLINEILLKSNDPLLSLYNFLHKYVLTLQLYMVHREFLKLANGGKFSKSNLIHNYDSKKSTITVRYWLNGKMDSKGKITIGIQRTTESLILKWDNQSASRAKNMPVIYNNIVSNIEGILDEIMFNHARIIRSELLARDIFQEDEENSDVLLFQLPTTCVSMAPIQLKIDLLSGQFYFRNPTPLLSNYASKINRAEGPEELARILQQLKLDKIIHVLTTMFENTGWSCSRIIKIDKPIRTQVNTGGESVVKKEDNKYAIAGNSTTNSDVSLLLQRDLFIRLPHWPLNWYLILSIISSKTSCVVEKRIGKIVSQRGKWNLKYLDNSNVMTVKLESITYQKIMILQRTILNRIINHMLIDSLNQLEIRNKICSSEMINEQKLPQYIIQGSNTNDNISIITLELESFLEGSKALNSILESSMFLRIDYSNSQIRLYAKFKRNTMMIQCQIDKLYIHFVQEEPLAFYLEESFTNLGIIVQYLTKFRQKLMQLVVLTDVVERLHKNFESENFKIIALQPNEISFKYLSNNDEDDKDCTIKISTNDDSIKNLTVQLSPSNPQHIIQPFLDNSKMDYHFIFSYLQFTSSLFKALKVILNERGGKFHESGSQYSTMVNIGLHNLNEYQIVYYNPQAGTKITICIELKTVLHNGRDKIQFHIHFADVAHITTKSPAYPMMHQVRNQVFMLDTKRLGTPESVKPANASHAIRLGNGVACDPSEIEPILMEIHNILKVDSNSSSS

[2] = target: T2, Med5 (Nut1), Mediator Tail module subunit (S. cerevisiae, UniProt P53114 1-1132)
T2 construct: Med5 (Nut1), S. cerevisiae, endogenous; source: endogenous, S. cerevisiae CB010 double-tagged strain; within the purified native holoenzyme
T2 sequence (looked up): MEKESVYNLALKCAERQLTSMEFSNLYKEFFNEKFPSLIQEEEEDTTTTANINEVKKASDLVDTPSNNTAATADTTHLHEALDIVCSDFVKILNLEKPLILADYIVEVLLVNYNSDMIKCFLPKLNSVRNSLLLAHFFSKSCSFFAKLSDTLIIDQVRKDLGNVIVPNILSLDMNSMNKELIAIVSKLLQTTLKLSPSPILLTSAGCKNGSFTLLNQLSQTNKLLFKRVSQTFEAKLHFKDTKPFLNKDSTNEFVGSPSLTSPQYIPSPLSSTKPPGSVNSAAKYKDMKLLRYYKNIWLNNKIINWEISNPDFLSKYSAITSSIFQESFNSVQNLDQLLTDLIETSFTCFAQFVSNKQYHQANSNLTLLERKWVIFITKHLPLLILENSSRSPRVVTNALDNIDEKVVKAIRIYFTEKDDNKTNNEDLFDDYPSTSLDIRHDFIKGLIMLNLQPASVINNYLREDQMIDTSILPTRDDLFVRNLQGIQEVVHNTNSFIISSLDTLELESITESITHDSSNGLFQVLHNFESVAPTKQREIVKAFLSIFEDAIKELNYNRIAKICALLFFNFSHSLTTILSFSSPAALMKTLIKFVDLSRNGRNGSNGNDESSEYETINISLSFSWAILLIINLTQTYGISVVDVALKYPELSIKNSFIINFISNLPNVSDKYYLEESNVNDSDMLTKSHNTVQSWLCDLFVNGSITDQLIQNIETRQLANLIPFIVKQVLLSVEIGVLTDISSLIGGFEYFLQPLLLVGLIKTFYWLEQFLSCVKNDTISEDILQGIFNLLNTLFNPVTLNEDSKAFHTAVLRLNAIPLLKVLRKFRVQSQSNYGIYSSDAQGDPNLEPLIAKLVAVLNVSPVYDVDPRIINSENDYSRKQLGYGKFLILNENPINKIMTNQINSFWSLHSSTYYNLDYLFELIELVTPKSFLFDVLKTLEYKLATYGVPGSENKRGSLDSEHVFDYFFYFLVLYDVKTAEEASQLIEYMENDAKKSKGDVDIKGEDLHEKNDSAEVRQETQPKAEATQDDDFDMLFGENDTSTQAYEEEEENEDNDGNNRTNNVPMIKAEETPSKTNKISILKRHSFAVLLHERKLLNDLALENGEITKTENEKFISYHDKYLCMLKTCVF

[3] = target: T3, Med1, Mediator Middle module subunit (S. cerevisiae, UniProt Q12321 1-566)
T3 construct: Med1, S. cerevisiae, endogenous; source: endogenous, S. cerevisiae CB010 double-tagged strain; within the purified native holoenzyme
T3 sequence (looked up): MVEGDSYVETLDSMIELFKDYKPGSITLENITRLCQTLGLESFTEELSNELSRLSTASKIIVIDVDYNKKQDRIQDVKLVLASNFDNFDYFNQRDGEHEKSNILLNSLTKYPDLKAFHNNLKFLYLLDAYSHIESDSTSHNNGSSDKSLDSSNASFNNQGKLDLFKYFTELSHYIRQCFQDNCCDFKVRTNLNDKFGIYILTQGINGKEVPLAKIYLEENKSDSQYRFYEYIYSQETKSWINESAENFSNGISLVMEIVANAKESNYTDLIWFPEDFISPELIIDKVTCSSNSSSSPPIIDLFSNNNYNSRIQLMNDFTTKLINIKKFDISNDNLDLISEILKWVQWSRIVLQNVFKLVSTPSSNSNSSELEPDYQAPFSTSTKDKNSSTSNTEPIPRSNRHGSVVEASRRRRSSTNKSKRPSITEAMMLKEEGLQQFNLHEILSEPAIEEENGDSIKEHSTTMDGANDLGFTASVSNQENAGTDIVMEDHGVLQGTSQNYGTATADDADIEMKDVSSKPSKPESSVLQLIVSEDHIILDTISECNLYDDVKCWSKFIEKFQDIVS

binding result [1]: binds
binding result [2]: binds
B3: Med15 (Gal11), Mediator Tail module subunit (natural protein, S. cerevisiae, UniProt P19659 1-1081, looked up)
chain: MSAAPVQDKDTLSNAERAKNVNGLLQVLMDINTLNGGSSDTADKIRIHAKNFEAALFAKSSSKKEYMDSMNEKVAVMRNTYNTRKNAVTAAAANNNIKPVEQHHINNLKNSGNSANNMNVNMNLNPQMFLNQQAQARQQVAQQLRNQQQQQQQQQQQQRRQLTPQQQQLVNQMKVAPIPKQLLQRIPNIPPNINTWQQVTALAQQKLLTPQDMEAAKEVYKIHQQLLFKARLQQQQAQAQAQANNNNNGLPQNGNINNNINIPQQQQMQPPNSSANNNPLQQQSSQNTVPNVLNQINQIFSPEEQRSLLQEAIETCKNFEKTQLGSTMTEPVKQSFIRKYINQKALRKIQALRDVKNNNNANNNGSNLQRAQNVPMNIIQQQQQQNTNNNDTIATSATPNAAAFSQQQNASSKLYQMQQQQQAQAQAQAQAQAQAQAQAQAQAAQAAQAQAQAQAQAQAQAQAQAQAQAQAQAQAQAQAQAHAQHQPSQQPQQAQQQPNPLHGLTPTAKDVEVIKQLSLDASKTNLRLTDVTNSLSNEEKEKIKMKLKQGQKLFVQVSNFAPQVYIITKNENFLKEVFQLRIFVKEILEKCAEGIFVVKLDTVDRLIIKYQKYWESMRIQILRRQAILRQQQQMANNNGNPGTTSTGNNNNIATQQNMQQSLQQMQHLQQLKMQQQQQQQQQQQQQQQQQQQQQQQHIYPSSTPGVANYSAMANAPGNNIPYMNHKNTSSMDFLNSMENTPKVPVSAAATPSLNKTINGKVNGRTKSNTIPVTSIPSTNKKLSISNAASQQPTPRSASNTAKSTPNTNPSPLKTQTKNGTPNPNNMKTVQSPMGAQPSYNSAIIENAFRKEELLLKDLEIRKLEISSRFKHRQEIFKDSPMDLFMSTLGDCLGIKDEEMLTSCTIPKAVVDHINGSGKRKPTKAAQRARDQDSIDISIKDNKLVMKSKFNKSNRSYSIALSNVAAIFKGIGGNFKDLSTLVHSSSPSTSSNMDVGNPRKRKASVLEISPQDSIASVLSPDSNIMSDSKKIKVDSPDDPFMTKSGATTSEKQEVTNEAPFLTSGTSSEQFNVWDWNNWTSAT
notes: Med15 (Gal11), S. cerevisiae, endogenous; source: endogenous, S. cerevisiae CB010 double-tagged strain; within the purified native holoenzyme

binding result [1]: binds
binding result [3]: binds
B4: Med4, Mediator Middle module subunit (natural protein, S. cerevisiae, UniProt Q12343 1-284, looked up)
chain: MSVQDTKAVEFSMGHIRSSSVSLVAEATSNTNSEDKLSKVQLYEDLCRYEDTLSKLVESVDRFKPNLDIAKDLIRTDEALFENVKLLAEYDNIYRNLQKIDKDSEELDSKTRKILEILNECHDELKALPMLEQVEFEKNTILQQRSKINSTELLDYATKLSKFTKIPPTFDKGAVGPNNFIWPAEDALRRGMLAMASLHSKELTRIPGEEVEETEVPTVPPSQSEEQKGQMAKKEGTPKTDSFIFDGTAKEVGDEADNTKDKEKEENNDDALDLDLDLFDPDDF
notes: Med4, S. cerevisiae, endogenous; source: endogenous, S. cerevisiae CB010 double-tagged strain; within the purified native holoenzyme

binding result [1]: binds
B5: Med17 (Srb4), Mediator Head module subunit (natural protein, S. cerevisiae, UniProt P32569 1-687, looked up)
chain: MTTEDPDSNHLSSETGIKLALDPNLITLALSSNPNSSLHSPTSDEPVPESAGKADTSIRLEGDELENKTKKDNDKNLKFLKNKDSLVSNPHEIYGSMPLEQLIPIILRQRGPGFKFVDLNEKELQNEIKQLGSDSSDGHNSEKKDTDGADENVQIGEDFMEVDYEDKDNPVDSRNETDHKTNENGETDDNIETVMTQEQFVKRRRDMLEHINLAMNESSLALEFVSLLLSSVKESTGMSSMSPFLRKVVKPSSLNSDKIPYVAPTKKEYIELDILNKGWKLQSLNESKDLLRASFNKLSSILQNEHDYWNKIMQSISNKDVIFKIRDRTSGQKLLAIKYGYEDSGSTYKHDRGIANIRNNIESQNLDLIPHSSSVFKGTDFVHSVKKFLRVRIFTKIESEDDYILSGESVMDRDSESEEAETKDIRKQIQLLKKIIFEKELMYQIKKECALLISYGVSIENENKVIIELPNEKFEIELLSLDDDSIVNHEQDLPKINDKRANLMLVMLRLLLVVIFKKTLRSRISSPHGLINLNVDDDILIIRPILGKVRFANYKLLLKKIIKDYVLDIVPGSSITETEVEREQPQENKNIDDENITKLNKEIRAFDKLLNIPRRELKINLPLTEHKSPNLSLMLESPNYCNALIHIKFSAGTEANAVSFDTTFSDFKEVEDFLHFIVAEYIQQKKV
notes: Med17 (Srb4), S. cerevisiae, endogenous, residues 1-687 spoken of; cross-linking was done after cleavage; also called Med17p; source: endogenous, S. cerevisiae CB010 double-tagged strain; within the purified native holoenzyme; not shown: TAP, N-terminal, cleaved

Further lines, the binder ahead of its results:

B1: Med2, Mediator Tail module subunit (natural protein, S. cerevisiae, UniProt Q12124 1-431, looked up)
chain: MVVQNSPVSSVHTANFSERGSNTRTMTYKNKLTVCFDDILKVGAEMMMQQQLKNVQLDSYLVNGFSQSQQKLLKEKVKLFHGILDDLETSLSQSSSYLETLTALGKEKEKEREEAEKKRAEQENMRKVREQEELKKRQELEEASQQQQLQQNSKEKNGLGLNFSTTAPANTTDANGSKENYQELGSLQSSSQTQLENANAANNGAAFSPLTTTRIQSQQAQPSDVMFNDLNSMDISMFSGLDSTGFDSTAFNATVDETKGFDDNDSGNNYNDINISSIENNINNNINSTKNGKDNNNESNKNNNGDEKNKNNNEDNENNNNSSEKNNNNNNNNNNNNDDNGNNNNNNSGNDNNNTTNNDSNNKNNSITTGNDNENIVNNDLPTTVVSNPGDNPPPADNGEEYLTLNDFNDLNIDWSTTGDNGELDLSGFNI
notes: Med2, S. cerevisiae, endogenous; source: endogenous, S. cerevisiae CB010 double-tagged strain; within the purified native holoenzyme
binding result [1]: binds

B2: Med10 (Nut2), Mediator Middle module subunit (natural protein, S. cerevisiae, UniProt Q06213 1-157, looked up)
chain: MNGNSTNNEQLQQELATTQDQVASIIESFVELGVSIYDFPGTPEATKGMITNLQRNVDRLYKLNVRSNDPQSSLSKVDIPLEVVQYIEDGRNPDIYTREFVEAIRRSNQYQRGKMHGLKQLRDSLADKIVDEFPELKEPVEDIIKRTSPIDNVSNTH
notes: Med10 (Nut2), S. cerevisiae, endogenous; source: endogenous, S. cerevisiae CB010 double-tagged strain; within the purified native holoenzyme
binding result [1]: binds
